The results in this text go back to IntAct's records for PubMed 15983381.

Sequences and labels used below:
B1: Parkinson disease protein 7 (Homo sapiens), Q99497 (parent)
chain: MASKRALVILAKGAEEMETVIPVDVMRRAGIKVTVAGLAGKDPVQCSRDVVICPDASLEDAKKEGPYDVVVLPGGNLGAQNLSESAAVKEILKEQENRKGLIAAICAGPTALLAHEIGFGSKVTTHPLAKDKMMNGGHYTYSENRVEKDGLILTSRGPGTSFEFALAIVEALNGKEVAAQVKAPLVLKD

In the test the parent is B1. The note with it: with daxx_human DAXX.
In the case of MASKRALVILAKGAEEMETVIPVDVMRRAGIKVTVAGLAGKDPVQCSRDVVICPDASLEDAKKEGPYDVVVLPGGNLGAQNLSESAAVKEILKEQENRKGLIAAICAGPTALLAHEIGFGSKVTTHPLAKDKMMNGGHYTYSENRVEKDGLILTSRGPGTSFEFAPAIVEALNGKEVAAQVKAPLVLKD [L166P], the “effect of a mutation on the interaction” value is listed as “decreasing interaction”.
